Experimental data as given in US20090075394A1.

Molecular target: Aeropyrum pernix KvAP voltage-dependent potassium channel (Aeropyrum pernix) (UniProt Q9YDF8)
Experiment: inhibition of KvAP channel currents by CTX, channels in planar lipid bilayers

Sequence of Aeropyrum pernix KvAP voltage-dependent potassium channel (Aeropyrum pernix) (Q9YDF8 14-295): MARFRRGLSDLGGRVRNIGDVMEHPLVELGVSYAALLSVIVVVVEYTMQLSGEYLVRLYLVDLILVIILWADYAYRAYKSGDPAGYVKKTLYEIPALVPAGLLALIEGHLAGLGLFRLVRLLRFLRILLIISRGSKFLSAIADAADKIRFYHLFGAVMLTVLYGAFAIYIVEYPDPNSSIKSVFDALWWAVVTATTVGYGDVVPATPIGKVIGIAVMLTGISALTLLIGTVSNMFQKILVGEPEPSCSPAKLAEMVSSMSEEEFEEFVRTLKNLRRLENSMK

Work on “charybdotoxin (from UniProt P13487 23-59) (peptide)” yielded a Kd of 400 µM.
